Measurements as given in paper PMC8206089, “Split NanoLuc technology allows quantitation of interactions between PII protein and its receptors with unprecedented sensitivity and reveals transient interactions” (Scientific Reports, 2021).

What was measured:
[1] = target: T1, NAGK-SmBiT (N-acetyl-L-glutamate kinase fused to Small BiT) (Synechocystis sp. PCC 6803, UniProt P73326 1-297); assay: split reporter (BiFC, NanoBiT); in solution; NAGK-SmBiT titrated to 10 pM PII-LgBiT; 2 mM ADP and 2 mM NAG; 40 min at 30 °C; details: both partners purified
T1 construct: N-acetyl-L-glutamate kinase (NAGK), Synechocystis sp; PCC 6803; Cloned into pTEV5 (NdeI, BamHI); source: E. coli Lemo21, purified (Ni-NTA HisTrap); not shown: SmBiT (after a 16 amino acids flexible linker), C-terminal, kept
T1 sequence (looked up): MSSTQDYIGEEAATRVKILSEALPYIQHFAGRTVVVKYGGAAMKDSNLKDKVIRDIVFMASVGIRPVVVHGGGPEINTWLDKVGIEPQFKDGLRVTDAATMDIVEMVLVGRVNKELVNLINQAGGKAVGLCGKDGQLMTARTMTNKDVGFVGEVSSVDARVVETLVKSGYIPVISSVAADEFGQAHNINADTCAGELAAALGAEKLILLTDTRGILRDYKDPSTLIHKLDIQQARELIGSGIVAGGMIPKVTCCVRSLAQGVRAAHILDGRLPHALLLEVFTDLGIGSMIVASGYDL

[2] = target: T1, NAGK-SmBiT (N-acetyl-L-glutamate kinase …); assay: split reporter (BiFC, NanoBiT); in solution; NAGK-SmBiT titrated to 10 pM PII-LgBiT; 2 mM ADP and 50 mM NAG; 40 min at 30 °C; details: both partners purified
[3] = target: T1, NAGK-SmBiT (N-acetyl-L-glutamate kinase …); assay: split reporter (BiFC, NanoBiT); in solution; NAGK-SmBiT titrated to 10 pM PII-LgBiT variant; 2 mM ADP; 40 min at 30 °C; apparent KD; details: both partners purified
[4] = target: T1, NAGK-SmBiT (N-acetyl-L-glutamate kinase …); assay: split reporter (BiFC, NanoBiT); in solution; NAGK-SmBiT titrated to 10 pM PII-LgBiT variant; 2 mM ATP and 2 mM NAG; 40 min at 30 °C; details: both partners purified
[5] = target: T1, NAGK-SmBiT (N-acetyl-L-glutamate kinase …); assay: split reporter (BiFC, NanoBiT); in solution; NAGK-SmBiT titrated to 10 pM PII-LgBiT variant; 2 mM ATP; 40 min at 30 °C; apparent KD; details: both partners purified
[6] = target: T1, NAGK-SmBiT (N-acetyl-L-glutamate kinase …); assay: split reporter (BiFC, NanoBiT); in solution; NAGK-SmBiT titrated to 10 pM PII-LgBiT variant; 2 mM ATP and 50 mM NAG; 40 min at 30 °C; details: both partners purified
[7] = target: T1, NAGK-SmBiT (N-acetyl-L-glutamate kinase …); assay: split reporter (BiFC, NanoBiT); in solution; NAGK-SmBiT titrated to 10 pM PII-LgBiT; 2 mM ATP, 2 mM Arg and 2 mM NAG; 40 min at 30 °C; details: both partners purified
[8] = target: T1, NAGK-SmBiT (N-acetyl-L-glutamate kinase …); assay: split reporter (BiFC, NanoBiT); in solution; NAGK-SmBiT titrated to 10 pM PII-LgBiT; 2 mM ATP, 2 mM Arg and 50 mM NAG; 40 min at 30 °C; details: both partners purified
[9] = target: T1, NAGK-SmBiT (N-acetyl-L-glutamate kinase …); assay: split reporter (BiFC, NanoBiT); in solution; NAGK-SmBiT titrated to 10 pM PII-LgBiT variant; no effector molecules; 40 min at 30 °C; apparent KD; details: both partners purified
[10] = target: T1, NAGK-SmBiT (N-acetyl-L-glutamate kinase …); assay: split reporter (BiFC, NanoBiT); in solution; NAGK-SmBiT (3-666 nM) titrated to 10 pM PII-LgBiT variant; 2 mM ATP and 2 mM arginine; 40 min at 30 °C; details: both partners purified
[11] = target: T2, NAGK (as used in the Biolayer interferometry of ref. 17) (UniProt P73326 1-297); assay: BLI; binding curves of ref. 17 re-calculated here by curve fitting from association and dissociation kinetics (Octet data analysis HT software); apparent KD
T2 construct: N-acetyl-L-glutamate kinase
T2 sequence (looked up): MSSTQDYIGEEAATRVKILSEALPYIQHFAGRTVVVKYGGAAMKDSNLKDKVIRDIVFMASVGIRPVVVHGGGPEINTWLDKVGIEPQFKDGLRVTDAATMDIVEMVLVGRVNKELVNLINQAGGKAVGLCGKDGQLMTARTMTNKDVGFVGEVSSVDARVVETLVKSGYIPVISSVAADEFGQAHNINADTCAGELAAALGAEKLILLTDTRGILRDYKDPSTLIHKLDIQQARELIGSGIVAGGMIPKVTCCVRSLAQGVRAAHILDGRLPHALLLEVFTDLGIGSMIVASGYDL

B1: PII-LgBiT (wild-type PII protein from Synechocystis sp. PCC6803 fused to Large BiT) (natural protein, UniProt Q55247 1-112, looked up)
chain: MKKVEAIIRPFKLDEVKIALVNAGIVGMTVSEVRGFGRQKGQTERYRGSEYTVEFLQKLKIEIVVDEGQVDMVVDKLVSAARTGEIGDGKIFISPVDSVVRIRTGEKDTEAI
notes: PII signalling protein, Synechocystis sp; PCC 6803; LgBiT is fused at the C-terminally located Strep-tag purification linker of PII; cloned in pASK-IBA3; also called PII (WT); source: E. coli Lemo21, purified (Strep-Tactin Superflow); not shown: Strep-tag, internal (between PII and LgBiT), kept; LgBiT, C-terminal, kept
B1 was tested, and the Kd [1] was 14.9 nM, the Kd [2] was 1.2 nM and the Kd [3] was 30.8 nM. For the same binder, the Kd [4] was 4.7 nM, the Kd [5] was 8.8 nM and the Kd [6] was 0.74 nM. The Kd [7] was 16.5 nM, the Kd [8] was 9.5 nM and the Kd [9] was 12.9 nM. The Kd [10] was 17.8 nM.

B2: PII-S49E-LgBiT (phosphomimetic T-loop variant of PII fused to Large BiT) (natural protein, Synechocystis sp. PCC6803, UniProt Q55247 1-112, looked up)
chain: MKKVEAIIRPFKLDEVKIALVNAGIVGMTVSEVRGFGRQKGQTERYRGEEYTVEFLQKLKIEIVVDEGQVDMVVDKLVSAARTGEIGDGKIFISPVDSVVRIRTGEKDTEAI
notes: PII signalling protein, Synechocystis sp; PCC 6803, variant S49E; Same fusion as m1 with S49E; also called S49E PII variant; source: E. coli Lemo21, purified (Strep-Tactin Superflow); not shown: Strep-tag, internal (between PII and LgBiT), kept; LgBiT, C-terminal, kept
B2 gave a Kd [3] of 95.3 nM, a Kd [4] of 10.7 nM and a Kd [5] of 155 nM. For the same binder, the Kd [6] was 3.39 nM, the Kd [9] was 133 nM and the Kd [10] was 432 nM.

B3: PII (as used in the Biolayer interferometry of ref. 17) (natural protein, UniProt Q55247 1-112, looked up)
chain: MKKVEAIIRPFKLDEVKIALVNAGIVGMTVSEVRGFGRQKGQTERYRGSEYTVEFLQKLKIEIVVDEGQVDMVVDKLVSAARTGEIGDGKIFISPVDSVVRIRTGEKDTEAI
notes: PII signalling protein
With B3 the Kd [11] was 11.7 ± 0.005 nM.

B4: PII-I86N-LgBiT (PII variant I86N fused to Large BiT) (natural protein, Synechocystis sp. PCC6803, UniProt Q55247 1-112, looked up)
chain: MKKVEAIIRPFKLDEVKIALVNAGIVGMTVSEVRGFGRQKGQTERYRGSEYTVEFLQKLKIEIVVDEGQVDMVVDKLVSAARTGENGDGKIFISPVDSVVRIRTGEKDTEAI
notes: PII signalling protein, Synechocystis sp; PCC 6803, variant I86N; Same fusion as m1 with I86N; the text once words the change as 'IIe86 to Asp86'; source: E. coli Lemo21, purified (Strep-Tactin Superflow); not shown: Strep-tag, internal (between PII and LgBiT), kept; LgBiT, C-terminal, kept
With B4 the Kd [3] was 11.7 nM, the Kd [4] was 4.1 nM and the Kd [5] was 7 nM. For the same binder, the Kd [6] was 0.68 nM, the Kd [9] was 12.9 nM and the Kd [10] was 1.56 nM.
